Data as given in patent US20180355396, “Biosensors for Organic and Inorganic Arsenic” (THE FLORIDA INTERNATIONAL UNIVERSITY BOARD OF TRUSTEES, published 2018).

Molecular target: T1, AfArsR C102S (Acidithiobacillus ferrooxidans, UniProt B7J952 B7J952:1-118, C102S)
T1 sequence: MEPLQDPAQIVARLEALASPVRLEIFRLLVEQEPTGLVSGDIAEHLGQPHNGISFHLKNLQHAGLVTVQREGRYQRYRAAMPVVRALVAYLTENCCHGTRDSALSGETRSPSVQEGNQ
Assay: FP; anisotropy; complex little affected by As(III) up to 40 uM, dissociated by MAs(III), Rox(III), PhAs(III); same buffer
Settings: tags: C-terminal His tag (pBADarsR, E. coli Top10); chain copies: 2 (homodimer, inferred); label: 5'-6-FAM

B1: ars operator/promoter 30-mer (arsO) (dsDNA)
DNA 1: ATCCACGAATATTTCTTGCAGTATTGACAA
DNA 2: TTGTCAATACTGCAAGAAATATTCGTGGAT
  binding result: binds
